According to patent publication US20150258192A1, “COMPOSITIONS AND METHODS FOR PREVENTING OR TREATING CHRONIC LUNG ALLOGRAFT DYSFUNCTION (CLAD) AND IDIOPATHIC PULMONARY FIBROSIS (IPF)” (priority 2014, published 2015):

Target: MAPKAP-K2(h) (human) (UniProt P49137)
Assay: cell-based or functional assay

Question: With MMI-0100 ([…]; SEQ ID NO: 1) (peptide) as the substance, how does the IC50 (radiometric kinase activity assay) read?
Answer: 22 µM
